A protein production outcome set (Wang et al. 2014)

test: label from the status in PepcDB records
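Note: failed if final PepcDB status was selected cloned or expressed and not failed if soluble or beyond.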

Row | Sequence | protein production
1 | MNGFIPIIASIAISLPLLIFGSHSDVKKRSINSFTFLPIFILALAFYILDKDVVMSIVTILSTVAVFIKPNIYVYIVLPLIIIGIGFFDTINLLTILIVGMFLLTGFGELLFGIGDIKGIVSVVLLFSSIPRFNNYIPFSIVFVFFIAVASGGALLYFVVYARLNGLKLRGLNVLYDEHEYLRNTIKYQLKDTNSGKVMIYRVPFLVPILVSTVLSLIAQLIIYASIHT | failed
2 | MNGGKTAVIVLGWNGAADTLACLASLAKVRQPAFTVILADNGSTDGTVGLVRQAFPEVEILELGRNLGFAAGNNAAFRSLRGRGFDRVVFLNNDTVVDPGFLQPLLDELQKPWVGIAAPKILYMDDPGRIWYAGGVLESATGLIEHTGIRQPDGPRFDTPEPVWYATGCCLAMRCRVFEEVGGFDERFRMYGEDVDLSMKVRERGLIVMYQPASRIWHRVSASSGGEMNLGKQLRKSGAAMMLFAKHGMIGGLVLYPLLLPFRALLGLLRFQFFRWTSSQEREEA | failed
3 | MNGGTFTTGKEKERAGIYFNFKTTAQERVSLSERGTVALPVASSWGEAKTFVSISSVEDLNKKVGLSIDDPSLLLLREAKKNAKTVLMYRLTEGVRASADIAEGVKATAVYGGTKGNDIIIRINQNVLDANSFDVTTYMDESEVDKQTVKKAEELTANGYVTFTGTGDLSSTIPLTGSEGDTAAETLNASAGIRLSGGTDKAPVNSDYTDFLAAAETESFDVIALPVAEGDQLKATFAAFIKRLRDGQGQKVQGVTANYAGDYEGIINVTEGVLLEDGTEVTPDKATAWVAGASAGATFNQSLTFVEYEGAVDVLHRLDHDTIVERLGKGEFLFTFDARDKSVSVEKDINSLVTFTAEKNKKFAKNKIVRVLDAVNNDLTRELKALIKSRKGSGSDIPASEDGLQYVKTMITQYMTTLQDAGGITGFDSDEDITISMNEDRDGFLIDLLYSLSTQQKNSTLMWRLEHHHHHH | not failed
4 | MNGRRTIGEDGLVFGLVVIVALVAAVVVGTVLGHRYRVGPPVLLILSGSLLGLIPRFGDVQIDGEVVLLLFLPAILYWESMNTSFREIRWNLRVIVMFSIGLVIATAVAVSWTARALGMESHAAAVLGAVLSPTDAAAVAGLAKRLPRRALTVLRGESLINDGTALVLFAVTVAVAEGAAGIGPAALVGRFVVSYLGGIMAGLLVGGLVTLLRRRIDAPLEEGALSLLTPFAAFLLAQSLKCSGVVAVLVSALVLTYVGPTVIRARSRLQAHAFWDIATFLINGSLWVFVGVQIPGAIDHIAGEDGGLPRATVLALAVTGVVIATRIAWVQATTVLGHTVDRVLKKPTRHVGFRQRCVTSWAGFRGAVSLAAALAVPMTTNSGAPFPDRNLIIFVVSVVILVTVLVQGTSLPTVVRWARMPEDVAHANELQLARTRSAQAALDALPTVADELGVAPDLVKHLEKEYEERAVLVMADGADSATSDLAERNDLVRRVRLGVLQHQRQAVTTLRNQNLIDDIVLRELQAAMDLEEVQLLDPADAE | failed
5 | MNGSADAGPRPRKYVFITGGVVSSLGKGILTSSLGALLRARGYRVTAIKIDPYVNVDAGTMRPYEHGEVFVTADGAETDLDIGHYERFLDMDLSRGNNLTTGQVYLSVIQKERRGEYLSQTVQVIPHITDEIKERIRKVAEEQKAEIVVVEVGGTVGDIESLPFLEAIRQFRFDEGEGNTLYLHLTLVPYLETSEEFKTKPTQHSVATLRGVGIQPDILVLRSARPVPEEVRRKVALFTNVRPGHVFSSPTVEHLYEVPLLLEEQGLGRAVERALGLEAVIPNLSFWQEAVRVLKHPERTVKIAIAGKYVKMPDAYLSLLEALRHAGIKNRARVEVKWVDAESLEAADLDEAFRDVSGILVPGGFGVRGIEGKVRAAQYARERKIPYLGICLGLQIAVIEFARNVAGLKGANSTEFDPHTPHPVIDLMPEQLEVEGLGGTMRLGDWPMRIKPGTLLHRLYGKEEVLERHRHRYEVNPLYVDGLERAGLVVSATTPGMRGRGAGLVEAIELKDHPFFLGLQSHPEFKSRPMRPSPPFVGFVEAALAYQERA | not failed
6 | MNGSEFVPLSLTPLLIGVLAAVACALPGNFLVLRRQALIGDAISHVVLPGIVVAFLLTGAIAAWPMMLGAAGAAVVAVVLIEAIRRLGRIEPGAAMGVVFTTMFAAGVLLLEQTDTSTVHLDVEHALYGNLESLIWLDATGWASLLDPVALAGLPVELSRILVTLVGVVGFIWLFWRPLKLSTFDEGFARTLGIRTNLLGLALVIVAAVAAVAAFDAVGSIIVIAMFICPPAAARMMTNTLEGQVGWSVVFAILSAVLGYVLAGYGPLWLGARDAVSAAGMIATMSGLILALTARFGPCRSRTGAPVQA | failed
7 | MNGSLQRSHMEIVPDTSVVIDGRVSDQVKADADPDTDVDGMGFAGATVVVPEAVVGELEAQANDGRETGWEGLEELQTLVDLAEEGTIDVEYVGRRPDAIEKREAGEGQIDALIRDIAGDRDATLVTSDDVQAEVARAKGLAVEFVDPVKRTVDRLQI | failed
8 | MNGSLQTADRTPVDYVNPYIGNISHLLVPTFPTIQLPNSMLRVYPERADYTSELLKGLPLIVTNHRERSAFNFSPYQGEKLRPVITYNYDNEHITPYSFDVELDDNRMKAEYALSHQSAIYRITYEADKPAYLIVNSRNGSIHANENFISGRQQLNDNTNVYVYIEAQEKPLEHHHHHH | not failed
9 | MNGYTISAIYAHIASGISLEKRKGFFEMLDEIINNKVEKVIITYKDRLSRVGFDLFSYLFRKYRTEIAVISEVGNTKLDSEEVFEEIVSMLHSYSMKMYSKRKNHYIEVGYEG | failed
10 | MNHDIDIKKVRLNCFRQSKVPGEFMLQMRIPGGIVDAKYLSQIQEIAETWGNGTFHMGMRQTFNIPGIKYENIQAVNKFIENYLQEVEVDRCNCDMKVDENGYPTIGARNVMACIGNSHCIKANVDTKDMANKIEKLVFPSHYHIKVSVAGCPNDCAKGHFQDFGVIGQARMEYHEERCIGCGACVRACEHHATRVLSLNDKGLVDKDPCCCVGCGECVLACPASAWTRKPEKFYRIVIGGRTGKQTPRMGKTFINFATEEVVLGIFANWQKFSAWALDYKPEYLHGGHLIDRAGYHKFKEIILDGVELNPEALVADNIFWAETEYRSNFNVKPIKMHKTIESNRPLRLEHHHHHH | failed
11 | MNHEAVQNYYGEVLQSSADLQTNACCTPDAVPAHLKPVLGKLHDEVMARYYGCGLIAPLALEGARILDLGCGAGRDVYALSALVGESGAVVGVDMTPAQLEVAQAHRAYHAEVFGHAAPNTEFHQGYIEKLDDLPLKPGSFDIIVSNCVLNLATDKAAVLRGAQRLLKPGGEMYFSDVYADRRIPEALARDEVLYGECLSGALYWNDFLSLARGAGFGDPRMVESRLLTIENPELERRVGPIRFLSATYRLFNLAGLEPDCEDYGQAVIYKGTVPHAPHEFVLDDHHVIETGKVFPVCGNSWRMLAESRFAPHFQFIGDFSTHYGIFAGCGGASPFNGLSPVAPAASGGCC | failed
12 | MNIAPLKVSLLSLALLLSPVASLPAHAACTANLALQPASSLPALGGRLVYHSYMEYGDGSSNLYLHDFKSKSTRQLNQPGWNIEDPMNAHFSPDGRYLTFMGRQNGAWHVFAWAIGGTQAPSNLTAAIGGRNEDPKFSFDGRQVVLKHEGDIRLATLVFNGDGSVGVSAWKAVTGDGWSTEESMPFLTPSGKYVVYATGAGDSLRVVRRNLENGQVCALATPAAGGRDYYPVVRDYTAYFLSRTQPAGNDQLAMVVPNSPPGTPAILPLNHCQGDNSDAAPVNEDYLIFSSTSFDPTYSLLLGDIAAARVWRLDPAQINLPDGRQKLGASYTAAR | failed
13 | MNIAPVVDSLSAPAMLEELKQSPPWLRLSLLFPLFFLNGWLIYKAMGFLQPLSSLLVAAALLAFLLDIPVRILVEKGLKRPWAVASVLLIALVVISLFLLIVIPLAIDQLGQLLDNLPGWFRSGNAQLLMLQAWVNEHYANLQVDLQPLISQAIEKLSRILNSFGNQLLGLVGVTISTSINGLILLVLTIFLVLGGEKIWDGIFSWFPHPWQRDLQNLIRDTFEGYFATQAILAGILSVAQMVVFTLLQAPYAILFAITIGLSTLIPFASALSIIVISLLLMLENFWLGVKILLAAVIVGQINDNVISPRLMGNRTGLNPAWIIVSLFVGSKLGGVLGLLVAVPLASVIKATSDRLRGLPKKSGEQPAEVSVVST | failed
14 | MNIEDDENKEKKETCLSYIKKINMSEIINDEAIGKRAEYLWNLALSAVYINVKLSMKYITLIKKITKNNLLFDNICCHYCNLIYIPFYNCKITHSPNQGKATYTCLLCKRKKKINLQHLSKHKNIYPLKHSDKHKPSTSNLSNVNFFLINEIDNYEIKKNNVPLNKDDTSNTENQLITKQENKNEDTLKDVSCADMQKEEHIINQDNIINQDNIINQDNIINQDNIINQDNIINQDNIINQDNIINQDNIINQDNIINQDNIINKNDMYQNLSYLFRIDYGINKDDTQKGNEIYDKSIVNESEKCKSVHIENNKNDDNKNMNSESKNIKNERKRKSQNNNIAQNKNQGFPNVNMNDGFLNFNKSKKKKGKSILDIL | failed
15 | MNIFTEAAKLEEQNCPFAMAQIVDSRGSTPRHSAQMLVRADGSIVGTIGGGMVERKVIEESLQALQERKPRLFHGRMARNGADAVGSDCGGAMSVFISVHGMRPRLVLIGAGHVNRAIAQSAALLGFDIAVADIYRESLNPELFPPSTTLLHAESFGAAVEALDIRPDNFVLIATNNQDREALDKLIEQPIAWLGLLASRRKVQLFLRQLREKGVAEEHIARLHAPVGYNIGAETPQEIAISVLAEILQVKNNAPGGLMMKPSHPSGHQLVVIRGAGDIASGVALRLYHAGFKVIMLEVEKPTVIRCTVAFAQAVFDGEMTVEGVTARLATSSAEAMKLTERGFIPVMVDPACSLLDELKPLCVVDAILAKQNLGTRADMAPVTIALGPGFTAGKDCHAVIETNRGHWLGQVIYSGCAQENTGVPGNIMGHTTRRVIRAPAAGIMRSNVKLGDLVKEGDVIAWIGEHEIKAPLTGMVRGLLNDGLAVVGGFKIGDIDPRGETADFTSVSDKARAIGGGVLEALMMLMHQGVKATKEVLEVALEHHHHHH | failed
16 | MNIGSMDIQKIGMITSYRNLAKRADWLWQQTPQQFGIWQNIQIQALSGKPDFLLMYQFDFPKDNQQTSLIDKLRQKLQNPQVNVESLLRDVPKEKIIYLLREPPLDEIVEKNKRYYQEAKKYCGYISGPDDFAPKPDYMPAIWYHNNSFRELNEMPVPEKVFPCSWITSGISRTVNHRRRLKFVELIQASEVKCDVYGRDLPIWAKSLGELGNKWYGMAPYYYNLSIENYADNDWYVSEKLWDALLAWCLPIYYGGPAADKLLPPGSFLRLPSLDEKGIAYIQEVTATPDAWYAAKDAIAEARQLILHKLNLLNWLSEFVTQFS | failed
17 | MNIGTFDRLLFAYSIGSHILIVLMSIGLSVILPVLEYIAIKYKDVYYDLLTRRVAKALVMFFAVGTASGAVMAVELIDLFPKFMTIIAVVGVLPFYYEIFAFFLETIMLVSYYYYWDVFKNRMHHWLLTFGVAGGTLASAVFITMINAWMNTPNGFNISYYEKTGKLIDVNPFITALTPSTGREVFHVVIVTAFAGLMVLGAFFAYQYLRAKTEEAKTLYMKGLKVTFPMNMFLIIMAGLSGTLEMSGLLTYQPEKYAALDLNPYPIARDAPEHLFGTIVEKNGHYYVLGGIKIPFVQSLLAGNGNLNTPVPGLSQFPTSTWPPLAVHDTFDLMVIGGTLLGLFLLSVLIAWILKKKPYESKGFMVAQILFAILTIPIYIGGWVTDEVGRQPWIIYNVMTVYQAANYSPSIIVPGYLIMAFYTILMPFSYWYAFRLMKQGDVKKEISSYKMPSTAHGR | failed
18 | MNIIMNINSKAKGFVCGAVAAATYGMNPLFTLPLYKEGMSVDSVLFYRYGFAVLILGILMKVQGQSFALKKNEVLPLIVGGLLFSASSLLLFLSYKHMDAGIASTILFVYPVMVALIMFLFFHEKVSLLTVFCILLALSGIGLLYKGEGGETLSLVGMLLVILSSLSYAVYIVGVNHSTLKLMSTAKLTFYALLFGLSIYIVRLNFCSDLQAVPSLPAWGNILAMAFLPTVISLVCTAVSIHTIGSTSTAILGALEPVTALFFGVMIFGERLTPRLMLGILMILVAVTFIVVGKPLMTFLKEEVAGGMKRKLTR | failed
